Source: paper PMC9631991

Molecular target: biotinylated pro-LC3B (residues 1-125) (human) (UniProt Q9GZQ8)
Assay: SPR; biotinylated LC3B constructs immobilised on NeutrAvidin-coated CM5 chips; ATG4b proteins flowed over, 0.2 nM~20 uM; 1X PBS, 0.5 mM TCEP, 0.05% Tween 20, 20 °C; Biacore 4000; 1:1 binding model

Kd: 321 nM
Substance: ATG4b WT (full-length ATG4b) (from UniProt Q9Y4P1 1-393) (enzyme)
